Assay results as given in patent publication US20230075753A1 (UCB, published 2023).

What was measured:
Active human KLK5 [1] = target: T1, Active human KLK5 (human, UniProt Q9Y337 67-293); experiment: SPR; antibody 10236 gL6gH12 captured on anti-human Fc and loaded with human KLK5, LEKTI D5 Fab fusion injected, 1:1 model; KLK5 in complex with 10236 gL6gH12; KLK5 already in complex with antibody 10236 gL6gH12
T1 construct: glycosylated; also called Hu KLK5; KLK5 analyte (prepared in house)
Experimental: (§1) The experimental conditions described in example 5 were used with the exception that an anti-human Fc chip surface was prepared, and the results are reported in Table 6.

Active human KLK5 [2] = target: T1, Active human KLK5; experiment: SPR, Biacore T200; LEKTI D5 Fab fusion immobilised on CM5 chip, human KLK5 injected 0.32-32 nM, single cycle kinetics, 1:1 model
Experimental: (§2) Kinetic measurements for the binding of LEKTI D5 Fab fusion protein to human KLK5 were obtained using a Biacore T200 (GE Life Sciences™). To prepare the surface, CM5 chips (GE Life Sciences™) were first activated with a 5-minute injection (30 μL min⁻¹) of a mixture of EDC/NHS (GE Life Sciences™) followed by injection of 100 μg mL⁻¹ LEKTI D5 Fab fusion (UCB) in acetate buffer, pH 5.0 (GE Life Sciences™) to achieve 80 RU immobilised LEKTI D5 Fab fusion on the chip surface. Finally, an injection of 1 M Ethanolamine hydrochloride-NaOH pH 8.5 was utilised to deactivate the surface. Increasing concentrations of human KLK5 from 0.32 to 32 nM in HBS-EP buffer (GE Life Sciences™) were then injected in the single cycle kinetics mode. Values resulting from buffer only injections were subtracted from those obtained for the KLK5 injections and kinetics determined by fitting to a 1:1 binding model in BIAcore evaluation software (GE Life Sciences™)
(§3) As reference, LEKTI D5 Fab fusion protein was immobilised to the chip surface prior to monitoring the interaction with human KLK5.

Active human KLK5 [3] = target: T1, Active human KLK5; experiment: SPR; LEKTI D5 Fab fusion immobilised, human KLK5 injected; reference row, same values as Table 4A
Experimental: as §2, §3

Active human KLK5 [4] = target: T1, Active human KLK5; experiment: SPR, Biacore; rabbit antibody 10236 captured on anti-rabbit Fc and saturated with 20 nM human KLK5, LEKTI D5 Fab fusion injected 30 pM-100 nM, 1:1 model; KLK5 in complex with 10236
Experimental: 20 nM of human KLK5 was then injected until the surface reached saturation. LEKTI D5 Fab fusion protein (generated as described in example 1) was then injected at concentrations between 30 pM and 100 nM. Values from buffer only injections were first subtracted from those obtained with the analytes before fitting to a 1:1 binding kinetic model in Biacore™ evaluation software (GE Life Sciences™)

Active human KLK5 [5] = target: T1, Active human KLK5; experiment: SPR, Biacore T200; LEKTI D5 Fab fusion immobilised on CM5 chip, human KLK5 injected 0.32-32 nM, single cycle kinetics, 1:1 model; human KLK5 alone, no antibody 10236; LEKTI D5 Fab fusion immobilised on the chip
Experimental: as §2, §3

Active human KLK5 [6] = target: T1, Active human KLK5; experiment: SPR; antibody 10236 gL6gH12 captured on anti-human Fc and loaded with human KLK5, LEKTI D5 Fab fusion injected, 1:1 model; KLK5 in complex with 10236 gL6gH12
Experimental: as §1

Kd (Active human KLK5 [1]): 540 nM
koff (Active human KLK5 [2]): 2.3e-05 s⁻¹
kon (Active human KLK5 [2]): 570000 M⁻¹ s⁻¹
koff (Active human KLK5 [3]): 2.3e-05 s⁻¹
kon (Active human KLK5 [3]): 570000 M⁻¹ s⁻¹
Kd (Active human KLK5 [4]): 120 nM
koff (Active human KLK5 [4]): 0.0073 s⁻¹
kon (Active human KLK5 [4]): 59000 M⁻¹ s⁻¹
Kd (Active human KLK5 [5]): 0.04 nM
koff (Active human KLK5 [6]): 0.0016 s⁻¹
B1: LEKTI D5 Fab fusion protein (other)
heavy: EVQLLESGGGLVQPGGSLRLSCAVSGIDLSNYAINWVRQAPGKGLEWIGIIWASGTTFYATWAKGRFTISRDNSGGGGSGGGGSREIVKLCSQYQNQAKNGILFCTRENDPIRGPDGKMHGNLCSMCQAYFQAENEEKKKAEARARSGGGGGGGGSKNTVYLQMNSLRAEDTAVYYCARTVPGYSTAPYFDLWGQGTLVTVSSASTKGPSVFPLAPSSKSTSGGTAALGCLVKDYFPEPVTVSWNSGALTSGVHTFPAVLQSSGLYSLSSVVTVPSSSLGTQTYICNVNHKPSNTKVDKKVEPKSCHHHHHHHHHH
light: DIQMTQSPSSVSASVGDRVTITCQSSPSVWSNFLSWYQQKPGKAPKLLIYEASKLTSGVPSRFSGSGSGTDFTLTISSLQPEDFATYYCGGGYSSISDTTFGGGTKVEIKRTVAAPSVFIFPPSDEQLKSGTASVVCLLNNFYPREAKVQWKVDNALQSGNSQESVTEQDSKDSTYSLSSTLTLSKADYEKHKVYACEVTHQGLSSPVTKSFNRGEC
notes: the Fab itself is specific for albumin; also called Human LEKTI D5 Fab fusion protein
